Measured values: publication PMC6234480

Assays:
[1] = molecular target: human recombinant TACE (TNFα converting enzyme) (human) (UniProt P78536)
[2] = molecular target: recombinant rat MMP2 (pro‐MMP2 activated with APMA) (rat)
[3] = molecular target: recombinant human MMP2 (pro‐MMP2 activated with APMA) (human)
[4] = molecular target: catalytic domain of human MMP9 (human)
[5] = molecular target: recombinant rat MMP9 (rat pro‐MMP9) (rat) (UniProt P50282)
Chain of UniProt P50282 (P50282 20-708): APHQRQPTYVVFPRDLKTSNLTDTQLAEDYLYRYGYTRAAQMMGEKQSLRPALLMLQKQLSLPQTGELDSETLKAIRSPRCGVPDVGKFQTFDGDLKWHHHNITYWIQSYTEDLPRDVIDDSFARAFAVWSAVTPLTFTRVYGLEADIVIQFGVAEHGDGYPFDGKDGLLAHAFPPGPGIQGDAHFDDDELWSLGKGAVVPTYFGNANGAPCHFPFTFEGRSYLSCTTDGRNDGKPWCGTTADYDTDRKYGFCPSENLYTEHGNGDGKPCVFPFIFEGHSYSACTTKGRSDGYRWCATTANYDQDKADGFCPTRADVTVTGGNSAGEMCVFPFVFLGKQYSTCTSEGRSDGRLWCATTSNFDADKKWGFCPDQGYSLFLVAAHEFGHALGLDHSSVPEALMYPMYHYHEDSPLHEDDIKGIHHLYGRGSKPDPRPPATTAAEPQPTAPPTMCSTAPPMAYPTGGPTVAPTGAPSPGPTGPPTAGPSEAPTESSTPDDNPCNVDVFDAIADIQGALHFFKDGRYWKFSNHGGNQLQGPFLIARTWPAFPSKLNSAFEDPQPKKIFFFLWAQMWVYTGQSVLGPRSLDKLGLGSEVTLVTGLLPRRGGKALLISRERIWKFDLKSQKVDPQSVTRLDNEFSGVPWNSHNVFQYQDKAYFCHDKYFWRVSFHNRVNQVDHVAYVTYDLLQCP

Chain of catalytic domain of human MMP9 (human) (P14780 20-707): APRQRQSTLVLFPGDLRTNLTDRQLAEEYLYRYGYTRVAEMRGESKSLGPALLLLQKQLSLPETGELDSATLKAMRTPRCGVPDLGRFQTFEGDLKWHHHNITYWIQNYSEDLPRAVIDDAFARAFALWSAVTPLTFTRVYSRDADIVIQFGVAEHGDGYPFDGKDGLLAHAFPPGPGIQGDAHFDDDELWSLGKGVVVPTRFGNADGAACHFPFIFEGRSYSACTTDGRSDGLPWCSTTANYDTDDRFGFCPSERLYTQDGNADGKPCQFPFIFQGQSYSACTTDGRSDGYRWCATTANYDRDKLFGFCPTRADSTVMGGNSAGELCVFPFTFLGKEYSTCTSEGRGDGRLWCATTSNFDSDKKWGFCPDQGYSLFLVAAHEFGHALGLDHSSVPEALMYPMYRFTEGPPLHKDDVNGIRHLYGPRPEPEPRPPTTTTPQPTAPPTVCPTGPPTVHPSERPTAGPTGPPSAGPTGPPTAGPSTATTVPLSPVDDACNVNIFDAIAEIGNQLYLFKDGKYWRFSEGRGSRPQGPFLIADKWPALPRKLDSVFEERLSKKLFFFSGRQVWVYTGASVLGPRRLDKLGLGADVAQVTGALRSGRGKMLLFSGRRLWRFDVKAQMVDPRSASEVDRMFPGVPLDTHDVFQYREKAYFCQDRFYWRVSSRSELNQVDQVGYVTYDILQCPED
Chain of UniProt P78536 (P78536 18-824): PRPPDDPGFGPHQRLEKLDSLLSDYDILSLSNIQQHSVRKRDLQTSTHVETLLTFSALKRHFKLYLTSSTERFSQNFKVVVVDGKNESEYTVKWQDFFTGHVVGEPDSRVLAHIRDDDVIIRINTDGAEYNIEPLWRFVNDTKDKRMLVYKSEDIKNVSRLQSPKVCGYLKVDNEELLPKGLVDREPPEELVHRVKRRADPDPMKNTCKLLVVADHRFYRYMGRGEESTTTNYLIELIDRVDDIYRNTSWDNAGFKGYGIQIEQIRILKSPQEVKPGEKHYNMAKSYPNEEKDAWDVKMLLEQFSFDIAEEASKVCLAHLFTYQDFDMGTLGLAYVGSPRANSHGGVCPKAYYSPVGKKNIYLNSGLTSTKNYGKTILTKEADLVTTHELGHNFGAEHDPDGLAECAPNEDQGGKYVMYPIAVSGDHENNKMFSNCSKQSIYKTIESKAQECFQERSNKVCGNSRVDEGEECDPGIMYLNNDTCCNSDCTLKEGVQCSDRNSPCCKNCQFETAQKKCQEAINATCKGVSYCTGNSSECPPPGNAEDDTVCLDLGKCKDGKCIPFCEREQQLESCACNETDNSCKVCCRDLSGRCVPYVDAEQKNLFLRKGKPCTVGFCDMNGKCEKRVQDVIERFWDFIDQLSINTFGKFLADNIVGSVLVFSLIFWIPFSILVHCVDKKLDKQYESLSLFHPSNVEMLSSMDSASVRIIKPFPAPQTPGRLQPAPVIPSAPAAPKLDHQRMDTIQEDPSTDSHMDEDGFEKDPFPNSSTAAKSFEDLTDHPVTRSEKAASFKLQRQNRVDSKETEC
Chain of recombinant human MMP2 (pro‐MMP2 activated with APMA) (human) (P08253 30-660): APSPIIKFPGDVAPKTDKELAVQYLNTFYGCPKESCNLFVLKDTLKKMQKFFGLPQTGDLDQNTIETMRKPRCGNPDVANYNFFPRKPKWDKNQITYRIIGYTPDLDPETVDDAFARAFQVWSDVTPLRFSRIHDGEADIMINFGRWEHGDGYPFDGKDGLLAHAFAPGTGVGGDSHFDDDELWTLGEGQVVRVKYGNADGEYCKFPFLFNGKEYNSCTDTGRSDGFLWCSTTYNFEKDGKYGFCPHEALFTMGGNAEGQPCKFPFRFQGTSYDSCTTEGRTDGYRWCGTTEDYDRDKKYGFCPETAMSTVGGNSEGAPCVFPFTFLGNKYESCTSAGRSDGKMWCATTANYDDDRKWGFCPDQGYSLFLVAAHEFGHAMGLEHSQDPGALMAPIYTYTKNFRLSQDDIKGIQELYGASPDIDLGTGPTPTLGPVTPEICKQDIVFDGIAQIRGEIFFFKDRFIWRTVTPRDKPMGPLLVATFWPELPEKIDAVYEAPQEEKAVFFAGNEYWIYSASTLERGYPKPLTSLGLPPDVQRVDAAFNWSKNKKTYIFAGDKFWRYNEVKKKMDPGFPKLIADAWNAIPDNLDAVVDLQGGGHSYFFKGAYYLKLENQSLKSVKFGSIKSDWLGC
Chain of recombinant rat MMP2 (pro‐MMP2 activated with APMA) (rat) (P33436 110-662): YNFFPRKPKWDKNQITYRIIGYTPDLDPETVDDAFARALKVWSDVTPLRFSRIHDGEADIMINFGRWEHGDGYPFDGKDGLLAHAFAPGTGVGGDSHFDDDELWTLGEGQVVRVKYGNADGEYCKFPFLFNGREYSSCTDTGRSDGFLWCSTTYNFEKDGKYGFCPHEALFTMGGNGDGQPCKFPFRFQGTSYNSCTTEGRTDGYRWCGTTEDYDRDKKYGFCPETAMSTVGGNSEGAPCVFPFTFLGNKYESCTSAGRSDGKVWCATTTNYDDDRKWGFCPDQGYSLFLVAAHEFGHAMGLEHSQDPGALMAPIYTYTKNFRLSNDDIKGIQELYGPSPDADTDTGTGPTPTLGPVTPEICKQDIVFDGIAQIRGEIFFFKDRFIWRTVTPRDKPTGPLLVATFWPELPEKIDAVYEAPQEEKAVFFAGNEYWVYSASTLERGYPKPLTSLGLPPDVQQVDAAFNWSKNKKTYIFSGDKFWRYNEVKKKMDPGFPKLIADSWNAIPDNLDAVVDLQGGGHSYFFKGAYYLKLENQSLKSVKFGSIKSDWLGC

Binder	IC50 of inhibition of human TACE activity (SensoLyte 520 TACE fluorimetric kit) [1] [nM]	IC50 of inhibition of rat MMP2 activity (cleavage of 5-FAM/QXL 520 FRET peptide, 90 min, 37°C) [2] [nM]	IC50 of inhibition of human MMP2 activity (cleavage of 5-FAM/QXL 520 FRET peptide, 90 min, 37°C) [3] [nM]	IC50 of inhibition of human MMP9 activity (cleavage of 5-FAM/QXL 520 FRET peptide, 37°C) [4] [nM]	IC50 of inhibition of rat MMP9 activity (cleavage of 5-FAM/QXL 520 FRET peptide, 37°C) [5] [nM]
N‐PEG (PEGylated N‐TIMP3) (domain or fragment, PEG, size and site not stated) CTCSPSHPQDAFCNSDIVIRAKVVGKKLVKEGPFGTLVYTIKQMKMYRGFTKMPHVQYIHTEASESLCGLKLEVNKYQYLLTGRVYDGKMYTGLCNFVERWDQLTLSQRKGLNYRYHLGC	197	1.7	9.8	0.7	1.3
N‐Fc (N‐TIMP3 fused with Fc) (Fc fusion) CTCSPSHPQDAFCNSDIVIRAKVVGKKLVKEGPFGTLVYTIKQMKMYRGFTKMPHVQYIHTEASESLCGLKLEVNKYQYLLTGRVYDGKMYTGLCNFVERWDQLTLSQRKGLNYRYHLGC			9.7	1.6	
Wild‐type TIMP3 (Tissue Inhibitor of Metalloproteinase 3) (natural protein, endogenous glycosylation site at Asn184) CTCSPSHPQDAFCNSDIVIRAKVVGKKLVKEGPFGTLVYTIKQMKMYRGFTKMPHVQYIHTEASESLCGLKLEVNKYQYLLTGRVYDGKMYTGLCNFVERWDQLTLSQRKGLNYRYHLGCNCKIKSCYYLPCFVTSKNECLWTDMLSNFGYPGYQSKHYACIRQKGGYCSWYRGWAPPDKSIINATDP	59	1.4	0.6	0.9	0.9
v82‐HSA (TIMP3v82 fused with human serum albumin) (protein, additional glycosylation sites) CTCSPSHPQDAFCNSDIVIRAKVVGKKLVKEGPFGTLVYTIKQMKMYRGFTKMPNVTYIHTEASESLCGLNLTVNKYQYLLTGRVYNGTMYTGLCNFVERWDQLTLSQRKGLNYTYHLGCNCKIKSCYYLPCFVTSKNECLWTDMLSNFGYPGYQSKHYACIRQKGGYCSWYRGWAPPDKSIINATDP	145	0.3	1.6	7.4	152
WT‐HSA (wild‐type TIMP3 fused with human serum albumin) (protein) CTCSPSHPQDAFCNSDIVIRAKVVGKKLVKEGPFGTLVYTIKQMKMYRGFTKMPHVQYIHTEASESLCGLKLEVNKYQYLLTGRVYDGKMYTGLCNFVERWDQLTLSQRKGLNYRYHLGCNCKIKSCYYLPCFVTSKNECLWTDMLSNFGYPGYQSKHYACIRQKGGYCSWYRGWAPPDKSIINATDP	12.1	0.2	0.8	0.6	50.8
v82‐Fc (v82 with Fc fused in the C‐terminus) (Fc fusion, additional glycosylation sites) CTCSPSHPQDAFCNSDIVIRAKVVGKKLVKEGPFGTLVYTIKQMKMYRGFTKMPNVTYIHTEASESLCGLNLTVNKYQYLLTGRVYNGTMYTGLCNFVERWDQLTLSQRKGLNYTYHLGCNCKIKSCYYLPCFVTSKNECLWTDMLSNFGYPGYQSKHYACIRQKGGYCSWYRGWAPPDKSIINATDP	156	1	2.7	10.5	77
TIMP3v2 (K22S/F34N TIMP3) (natural protein, additional glycosylation site (F34N), >95% occupancy by mass spectrometry; endogenous glycosylation site at Asn184) CTCSPSHPQDAFCNSDIVIRASVVGKKLVKEGPNGTLVYTIKQMKMYRGFTKMPHVQYIHTEASESLCGLKLEVNKYQYLLTGRVYDGKMYTGLCNFVERWDQLTLSQRKGLNYRYHLGCNCKIKSCYYLPCFVTSKNECLWTDMLSNFGYPGYQSKHYACIRQKGGYCSWYRGWAPPDKSIINATDP	341	0.5	0.9	6.9	15.5

Second part, the binder after the results:

IC50 of inhibition of human TACE activity (SensoLyte 520 TACE fluorimetric kit) [1] [nM]	IC50 of inhibition of rat MMP2 activity (cleavage of 5-FAM/QXL 520 FRET peptide, 90 min, 37°C) [2] [nM]	IC50 of inhibition of human MMP2 activity (cleavage of 5-FAM/QXL 520 FRET peptide, 90 min, 37°C) [3] [nM]	IC50 of inhibition of human MMP9 activity (cleavage of 5-FAM/QXL 520 FRET peptide, 37°C) [4] [nM]	IC50 of inhibition of rat MMP9 activity (cleavage of 5-FAM/QXL 520 FRET peptide, 37°C) [5] [nM]	Binder
59	3.4	5.8	1.5	2.4	N‐TIMP3 (13.9 kDa N‐domain; aa 1‐120) (domain or fragment) CTCSPSHPQDAFCNSDIVIRAKVVGKKLVKEGPFGTLVYTIKQMKMYRGFTKMPHVQYIHTEASESLCGLKLEVNKYQYLLTGRVYDGKMYTGLCNFVERWDQLTLSQRKGLNYRYHLGC
195	3.6	6	1.1	10.8	N‐HSA (N‐TIMP3 fused with human serum albumin) (protein) CTCSPSHPQDAFCNSDIVIRAKVVGKKLVKEGPFGTLVYTIKQMKMYRGFTKMPHVQYIHTEASESLCGLKLEVNKYQYLLTGRVYDGKMYTGLCNFVERWDQLTLSQRKGLNYRYHLGC
29	0.2	1	2.3	14.3	TIMP3v82 (H55N/Q57T/K71N/E73T/D87N/K89T/R115T) (natural protein, additional glycosylation sites, site‐specific glycosylation confirmed by mass spec analysis (data not shown); endogenous glycosylation site at Asn184) CTCSPSHPQDAFCNSDIVIRAKVVGKKLVKEGPFGTLVYTIKQMKMYRGFTKMPNVTYIHTEASESLCGLNLTVNKYQYLLTGRVYNGTMYTGLCNFVERWDQLTLSQRKGLNYTYHLGCNCKIKSCYYLPCFVTSKNECLWTDMLSNFGYPGYQSKHYACIRQKGGYCSWYRGWAPPDKSIINATDP
123	0.1	0.4	9	60	v2‐PEG (TIMP3v2 PEGylated with 20 kDa polyethylene glycol) (natural protein, 20 kDa polyethylene glycol (PEG), site not stated; additional glycosylation site (F34N)) CTCSPSHPQDAFCNSDIVIRASVVGKKLVKEGPNGTLVYTIKQMKMYRGFTKMPHVQYIHTEASESLCGLKLEVNKYQYLLTGRVYDGKMYTGLCNFVERWDQLTLSQRKGLNYRYHLGCNCKIKSCYYLPCFVTSKNECLWTDMLSNFGYPGYQSKHYACIRQKGGYCSWYRGWAPPDKSIINATDP
6800	0.7	5.1	16	65	v2‐HSA (TIMP3v2 fused with human serum albumin) (protein, additional glycosylation site (F34N)) CTCSPSHPQDAFCNSDIVIRASVVGKKLVKEGPNGTLVYTIKQMKMYRGFTKMPHVQYIHTEASESLCGLKLEVNKYQYLLTGRVYDGKMYTGLCNFVERWDQLTLSQRKGLNYRYHLGCNCKIKSCYYLPCFVTSKNECLWTDMLSNFGYPGYQSKHYACIRQKGGYCSWYRGWAPPDKSIINATDP
618	0.9	0.9	10	36	v2‐Fc (TIMP3v2 fused with Fc) (Fc fusion, additional glycosylation site (F34N)) CTCSPSHPQDAFCNSDIVIRASVVGKKLVKEGPNGTLVYTIKQMKMYRGFTKMPHVQYIHTEASESLCGLKLEVNKYQYLLTGRVYDGKMYTGLCNFVERWDQLTLSQRKGLNYRYHLGCNCKIKSCYYLPCFVTSKNECLWTDMLSNFGYPGYQSKHYACIRQKGGYCSWYRGWAPPDKSIINATDP
